Data from patent publication US12655409B2, “Recombinant lysin and its use in the treatment of Gram-negative bacterial infections” (TELUM THERAPEUTICS S.L., priority 2020, dated 2026).

What was measured:
[1] = tested on: E. coli strain ATCC 25922; test: Enzyme bactericidal activity assay on E. coli ATCC 25922; format: cell-based, Escherichia coli
Protocol: (§1) Briefly, the different bacterial cultures were incubated in the specific media (Table 1) at 37° C. or 30° C., according to the strain, until reaching an A600 of 0.3. The cells were then deposited by centrifugation (4500×g, 10 min) and washed twice with the corresponding buffer, with the A600 being adjusted to ≈0.3. A volume of 160 μl of the bacterial suspension was transferred to sterile 96-well plates to which there were added 40 μl of the enzyme under study in a range of doses comprised between 1 and 60 μg mL^−1. The control wells were treated with the same volume of buffer […]. The plates were incubated at 37° C. Samples were taken at different times, serial dilutions performed, and they were seeded in plates containing the specific medium to determine viable bacteria. The experiments were repeated at least 3 times. The bactericidal effect of IKB206 (and its variants) was quantified as the number of logs reduced in the presence of treatment, after a given incubation time (log10 (N0/Ni), where N0=number of CFU mL^−1 before treatment, and Ni=number of CFU mL^−1 after the corresponding incubation time in the presence of each treatment).

[2] = tested on: E. coli strain DSM 17076 with serotype O157: H7; test: Enzyme bactericidal activity assay on E. coli serotype O157:H7; format: cell-based, Escherichia coli; conditions: 15 μg mL^−1
Protocol: as §1

[3] = tested on: strains from S. xylosus, E. avium, E. faecium and E. faecalis; test: Enzyme bactericidal activity assay on strains of chicken microbiota; format: cell-based; conditions: 15 μg mL^−1
Protocol: as §1

Klebsiella pneumoniae = test: Enzyme bactericidal activity assay on K. pneumoniae; format: cell-based
Protocol: as §1, with “A volume of 160 μl of the bacterial suspension was transferred to sterile 96-well plates to which there were added 40 μl of the enzyme under study in a range of doses comprised between 1 and 60 μg mL^−1.” left out

Citrobacter freundii = test: Enzyme bactericidal activity assay on C. freundii; format: cell-based; conditions: compared with E. coli or K. pneumoniae
Protocol: as §1

Serratia marcescens = test: Enzyme bactericidal activity assay on S. marcescens; format: cell-based; conditions: incubation time of 120 min
Protocol: as §1

Acinetobacter baumannii = test: Enzyme bactericidal activity assay on A. baumannii; format: cell-based
Protocol: as §1, with “A volume of 160 μl of the bacterial suspension was transferred to sterile 96-well plates to which there were added 40 μl of the enzyme under study in a range of doses comprised between 1 and 60 μg mL^−1.” left out

Pseudomonas aeruginosa = test: Enzyme bactericidal activity assay on P. aeruginosa; format: cell-based
Protocol: as §1, with “A volume of 160 μl of the bacterial suspension was transferred to sterile 96-well plates to which there were added 40 μl of the enzyme under study in a range of doses comprised between 1 and 60 μg mL^−1.” left out

[4] = tested on: E. coli strain ATCC 25922; test: Stability studies by E. coli bactericidal activity assay; format: physicochemical, Escherichia coli; conditions: 29 days of storage; −80, −20, 4, 25° C.; glycerol 0 to 10%
Protocol: To that end, E. coli strain ATCC 25922 and 15 μg mL^−1 of IKB206 dissolved in different concentrations of glycerol (0, 0.2, 2, 5 and 10%) were used. The assays were carried out at different storage temperatures (−80° C., −20° C., 4° C., 25° C.) and storage times (1, 5, 7, 14, 21 and 29 days).

human HEK293 cells = test: Cytotoxicity assay by means of sulforhodamine B; format: cell-based; conditions: 50 to 400 μg mL^−1, 48 h
Protocol: A seeding test was performed with human HEK293 cells before performing the experiment. To that end, three different cell concentrations were seeded in a 96-well plate in 100 μl of DMEM medium+10% Fetal Bovine Serum (FBS). These cells were incubated at 37° C. and 5% CO2 for 72 h, monitoring growth. The initial cell concentration showing 80% confluence at 72 h was selected for the further assays, which in this case was 7000 cells/well. Twenty-four hours after seeding the cells, another 100 μl of medium with the concentrations of purified protein IKB206tags to be tested was added. In this case, 400 μg mL^−1, 200 μg mL^−1, 100 μg mL^−1, and 50 μg mL^−1. The assays were performed in quadruplicate. As controls, the cells were incubated only with culture media and with the buffer in which the protein is dissolved (vehicle control). Buffer volume added as a vehicle control was the same volume of the highest protein concentration. The plate was left to incubate for another 48 h. The results were obtained by means of fixing the cells by adding 50 μl of 50% cold trichloroacetic acid (TCA) per well and leaving the plate to incubate for 1 h at room temperature. After discarding the TCA, the plate was washed with distilled water and 40 μl of 0.4% sulforhodamine B (SRB) were added. […] The results were read in Cytation (Bioteck, USA) at an absorbance of 510 nm.

E. coli ATCC 25922 [5] = test: Efficacy assay using a sepsis model in zebrafish; format: in vivo; conditions: 72 hpi
Protocol: Once the minimum lethal dose is determined, the six-month old wild-type zebrafish (1.2 grams) were inoculated intraperitoneally (IP) with a total of 10 μl containing 5.5×10^7 CFU mL^−1 of the bacterium E. coli grown in LB medium. All the experiments were repeated at least three times.
To study the protection mediated by the chimera IKB206tags, groups of five (5) six-month old wild-type female zebrafish were infected intraperitoneally (IP) with a lethal dose of the bacterium E. coli (5.5×10^7 CFU). After 1 h, the animals were treated by administering 10 μl of IKB206tags subcutaneously with a dose of 1, 0.5, and 0.25 mg kg-1 of body weight. The fish included in the control group were treated with the buffer in which the protein is dissolved. The animals were observed several times a day and the number of deaths was recorded daily 72 hours post infection (hpi).

[6] = uninfected fish, 1 μg g-1
Protocol: The intraperitoneal (IP) route is chosen for an infection model as it is easy and quick to implement, turning this technique into one that is particularly indicated for use in different groups of experimentation animals. One hour after infection with E. coli ATCC 25922, different doses of IKB206 were administered to each of the groups. […] Furthermore, to determine the toxicity of IKB206 in adult fish, assays in which uninfected fish were inoculated with the highest amount of protein used in the efficacy assays (1 μg g-1) were performed.

E. coli ATCC 25922 [7] = test: MIC by microdilution in TP-Na 10 mM pH 6.15; format: cell-based, Escherichia coli
Protocol: The IKB206tags endolysin was purified from the Escherichia coli BL21 (DE3) strain, as previously described.
Checkerboard tests were assessed by the microdilution method, as previously described (Moody JA 1992, Moellering E G., Jr.1996). […] Each microtiter well contained 100 μl of a E. coli inoculum of 1×10^5 CFUs mL^−1, with or without the corresponding compounds, in a final volume of 200 μl of Sodium phosphate (TP-Na) buffer 10 mM pH 6.15 per well and the plates were incubated at 37° C. for 17 h.

B1: IKB206: fusion of Enterobacter phage Arya putative endolysin (SEQ ID NO:1) and domain D8 of Bacillus amyloliquefaciens phage endolysin (SEQ ID NO:2), without tags (protein)
chain: MKTSPNGIAVTKYFESFEARAYPDPATGGKPYTIGFGTTVYPSGAPVRLGDVCTKEQAEKYLQNDLAKFEKIVSDAVRVPLNQGQFDALVSFTYNLGPANLRSSTLLKKLNAGDYAGAAKEFPRWNRANGKVMKGLTRRRAAEQCLFEGMGGASAIERGVAAANSGTPKNVSRGTSSTKTTPKYKVKNGDNLTKIAKKHNTTVATLLKLNPGIKDPNMIRVGQTLNVTGSGGKTHKVKSGDTLSKIAVDNKTTVSKLMNLNPEITNPNHIKVGQTIRLS
modifications: Chimeric endolysin (SEQ ID NO1 + SEQ ID NO2)
- reduction in CFU mL^−1 ([1]; 5 μg mL^−1, 15 min of incubation): significantly reducing
- incubation time for killing the entire culture ([1]; 15 μg mL^−1): 30 min
- reduction of the number of CFU mL^−1 ([1]; 15 μg mL^−1, 5 minutes of incubation): significantly reducing
- bactericidal effect (log reduction) ([1]; 15 μg mL^−1, 15 minutes of incubation): more than 3 log
- reduction of the bacterial suspension ([1]; 15 μg mL^−1, 30 min of incubation): 5 log
- incubation time for killing the entire culture ([1]; 60 μg mL^−1): 15 min
- bactericidal activity on serotype O157:H7 [2]: excellent activity
- bactericidal effect on chicken gut microbiota strains [3]: virtually no effect
- bactericidal activity (Klebsiella pneumoniae; 15 μg mL^−1, 120 min): bactericidal activity
- killing of the cells present in the assay (Klebsiella pneumoniae; 150 μg mL-1, 120 min): capable of killing all the cells present in the assay
- bactericidal activity (reduction) (Klebsiella pneumoniae; under the tested conditions (15 or 150 μg mL^−1)): ≥ 4 logarithms
- bactericidal activity (Citrobacter freundii): significantly lower than that observed in E. coli or K. pneumoniae
- bactericidal effect (Serratia marcescens): ~3 logarithms
- bactericidal activity (Acinetobacter baumannii; 15 μg mL^−1, 120 min): bactericidal activity
- killing of the cells present in the assay (Acinetobacter baumannii; 150 μg mL-1, 120 min): capable of killing all the cells present in the assay
- reductions in CFU/mL (Acinetobacter baumannii; 15 or 150 μg mL^−1): more than 4 logs
- bactericidal activity (Pseudomonas aeruginosa; 15 μg mL^−1, 120 min): bactericidal activity
- killing of the cells present in the assay (Pseudomonas aeruginosa; 150 μg mL-1, 120 min): capable of killing all the cells present in the assay
- reductions in CFU/mL (Pseudomonas aeruginosa; 15 or 150 μg mL^−1): more than 4 logs
- stability (bactericidal activity after storage) [4]: still fully active
- cytotoxicity versus control (culture media) (human HEK293 cells): not toxic
- survival (protection) (E. coli ATCC 25922 [5]; 1 μg g-1 (1 mg kg-1) subcutaneously 1 h after infection): 66.6%
- survival (protection) (E. coli ATCC 25922 [5]; 0.25 mg kg-1 subcutaneously 1 h after infection): 16.6%
- survival (protection) (E. coli ATCC 25922 [5]; 0.5 mg kg-1 subcutaneously 1 h after infection): 33.3%
- toxicity in adult fish versus protein buffer [6]: no differences
- MIC (E. coli ATCC 25922 [7]): 9.375 µg/mL
